Results: article PMC12708652 (Nature Communications, 2025)

Target: P116 (residues 30–957), recombinant ectodomain of Mycoplasma pneumoniae P116 (Mycoplasma pneumoniae, UniProt P75556)
Assay: cryo-EM structure

Chain of P116 (residues 30–957), recombinant ectodomain of Mycoplasma pneumoniae P116 (P75556 30-957): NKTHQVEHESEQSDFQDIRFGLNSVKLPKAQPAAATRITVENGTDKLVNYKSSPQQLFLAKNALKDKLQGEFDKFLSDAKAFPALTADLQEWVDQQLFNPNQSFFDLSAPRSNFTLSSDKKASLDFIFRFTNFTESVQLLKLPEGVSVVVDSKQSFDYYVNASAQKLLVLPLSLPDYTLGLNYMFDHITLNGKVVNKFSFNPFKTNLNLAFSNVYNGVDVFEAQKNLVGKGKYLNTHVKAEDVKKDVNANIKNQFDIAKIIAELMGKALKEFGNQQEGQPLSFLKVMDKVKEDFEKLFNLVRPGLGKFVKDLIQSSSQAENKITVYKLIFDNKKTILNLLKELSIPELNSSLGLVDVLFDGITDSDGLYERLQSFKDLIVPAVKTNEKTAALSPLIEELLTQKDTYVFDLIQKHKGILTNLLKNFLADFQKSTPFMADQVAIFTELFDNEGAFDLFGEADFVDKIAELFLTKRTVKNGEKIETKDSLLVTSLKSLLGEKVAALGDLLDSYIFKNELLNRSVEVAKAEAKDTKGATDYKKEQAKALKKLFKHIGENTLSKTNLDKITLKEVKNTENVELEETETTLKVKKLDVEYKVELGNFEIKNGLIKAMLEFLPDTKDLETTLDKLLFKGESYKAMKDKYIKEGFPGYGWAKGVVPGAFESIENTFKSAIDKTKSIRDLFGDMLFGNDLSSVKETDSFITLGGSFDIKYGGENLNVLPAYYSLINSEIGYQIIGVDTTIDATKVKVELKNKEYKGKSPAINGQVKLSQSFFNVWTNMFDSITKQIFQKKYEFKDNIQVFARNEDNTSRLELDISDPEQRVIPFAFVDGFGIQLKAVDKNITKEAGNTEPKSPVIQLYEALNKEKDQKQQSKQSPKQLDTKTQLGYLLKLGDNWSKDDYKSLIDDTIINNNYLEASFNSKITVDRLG

B1: monoclonal antibody (mAb) 3G9 against P116 (antibody, V domains shown)
VH: QVQLQQPGAELVKPGASVKLSCKASGYSFITYWMRWVRQRPGQGLEWIGQINPSNGHTNYDEKFKDRATLTVDKSSTTAYLQLSSLTSDDSAVYFCARSWEAMDYWGQGTSVTVSS
VL: DIVLTQSPATLSVTPGDSVSLSCRASQGISNNLHWYQQKSHESPRLLIKYASQSFSGIPSRFSGSGSGTVFTLTINSVETEDFGVYFCQQSYSWPIFTFGSGTNLQIK
B1: binds.
